Assay results as given in paper PMC12048173.

Biological target: Full-length Stigmatella aurantiaca bacteriophytochrome 2 (SaBphP2), Pr state (Stigmatella aurantiaca)
Assay: cryo-EM structure; single-particle cryo-EM, Spotiton nanowire grid, 0.4 mg/ml, pre-illuminated with 740 nm light (pure Pr state); global resolution 6.0 Å; subunits fitted as rigid units, not refined

A stoichiometry N of 2 was found for “Full-length Stigmatella aurantiaca bacteriophytochrome 2 (SaBphP2), Pr state (natural protein)” in this work.
